B1: GST-N (CLK1 residues 1-160) (domain or fragment, mouse, UniProt P22518 1-160, looked up)
chain: MRHSKRTYCPDWDERDWDYGTWRSSSSHKRKKRSHSSAREQKRCRYDHSKTTDSYYLESRSINEKAYHSRRYVDEYRNDYMGYEPGHPYGEPGSRYQMHSSKSSGRSGRSSYKSKHRSRHHTSQHHSHGKSHRRKRSRSVEDDEEGHLICQSGDVLSARY
B2: His-N (CLK1 residues 1-160) (domain or fragment, mouse, UniProt P22518 1-160, looked up)
chain: B1 chain

Experiments:
[1] = biological target: His-CLK1 (Cdc2-like kinase 1, mouse) (mouse, UniProt P22518 1-483); experiment: pull-down
[2] = biological target: GST-SRSF1 (human, UniProt Q07955 1-248); experiment: pull-down
GST-SRSF1, sequence (Q07955 whole entry): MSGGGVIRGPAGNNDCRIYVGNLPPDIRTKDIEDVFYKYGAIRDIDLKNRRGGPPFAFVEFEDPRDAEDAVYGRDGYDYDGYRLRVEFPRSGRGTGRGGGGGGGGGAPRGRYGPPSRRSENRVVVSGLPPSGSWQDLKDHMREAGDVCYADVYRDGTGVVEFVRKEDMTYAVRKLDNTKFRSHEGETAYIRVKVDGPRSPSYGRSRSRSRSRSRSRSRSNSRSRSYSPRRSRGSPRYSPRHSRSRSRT

Binder	binding result [1]	binding result [2]
B1	binds	–
B2	–	binds

— paper PMC5056641 (The Biochemical journal, 2014)
